{"source": "patent US20070009988A1", "molecules": {"B1": {"name": "microsomal leucine aminopeptidase from porcine kidney (Sigma) (protein)", "chain": "YAQEKNKNAEHVPQAPTSPTITTTAAITLDQSKPWNRYRLPTTLLPDSYNVTLRPYLTPNADGLYIFKGKSIVRLLCQEPTDVIIIHSKKLNYTTQGHMVVLRGVGDSQVPEIDRTELVELTEYLVVHLKGSLQPGHMYEMESEFQGELADDLAGFYRSEYMEGNVKKVLATTQMQSTDARKSFPCFDEPAMKATFNITLIHPNNLTALSNMPPKGSSTPLAEDPNWSVTEFETTPVMSTYLLAYIVSEFQSVNETAQNGVLIRIWARPNAIAEGHGMYALNVTGPILNFFANHYNTSYPLPKSDQIALPDFNAGAMENWGLVTYRENALLFDPQSSSISNKERVVTVIAHELAHQWFGNLVTLAWWNDLWLNEGFASYVEYLGADHAEPTWNLKDLIVPGDVYRVMAVDALASSHPLTTPAEEVNTPAQISEMFDSISYSKGASVIRMLSNFLTEDLFKEGLASYLHAFAYQNTTYLDLWEHLQKAVDAQTSIRLPDTVRAIMDRWTLQMGFPVITVDTKTGNISQKHFLLDSESNVTRSSAFDYLWIVPISSIKNGVMQDHYWLRDVSQAQNDLFKTASDDWVLLNVNVTGYFQVNYDEDNWRMIQHQLQTNLSVIPVINRAQVIYDSFNLATAHMVPVTLALDNTLFLNGEKEYMPWQAALSSLSYFSLMFDRSEVYGPMKKYLRKQVEPLFQHFETLTKNWTERPENLMDQYSEINAISTACSNGLPQCENLAKTLFDQWMSDPENNPIHPNLRSTIYCNAIAQGGQDQWDFAWGQLQQAQLVNEADKLRSALACSNEVWLLNRYLGYTLNPDLIRKQDATSTINSIASNVIGQPLAWDFVQSNWKKLFQDYGGGSFSFSNLIQGVTRRFSSEFELQQLEQFKKNNMDVGFGSGTRALEQALEKTKANIKWVKENKEVVLNWFIEHS"}, "B2": {"name": "cytosolic leucine aminopeptidase from porcine kidney (Sigma) (protein)", "chain": "TKGLVLGIYSKEKEDDAPQFTSAGENFDKLVSGKLREILNISGPPLKAGKTRTFYGLHEDFSSVVVVGLGKKGAGVDDQENWHEGKENIRAAVAAGCRQIQDLEIPSVEVDPCGDAQAAAEGAVLGLYEYDELKQKKKVVVSAKLHGSGDQEAWQRGVLFASGQNLARHLMETPANEMTPTRFAEVIEKNLKSASSKTDVHIRPKSWIEEQEMGSFLSVAKGSEEPPVFLEIHYKGSPDASDPPLVFVGKGITFDSGGISIKASANMDLMRADMGGAATICSTIVSAAKLDLPINLVGLAPLCENMPSGKANKPGDVVRAKNGKTIQVDNTDAEGRLILADALCYAHTFNPKVIINAATLTGAMDIALGSGATGVFTNSSWLWNKLFEASIETGDRVWRMPLFEHYTKQIVDCQLADVNNIGKYRSAGACTAAAFLKEFVTHPKWAHLDIAGVMTNKDEVPYLRKGMAGRPTRTLIEFLLRFSQDSA"}, "B3": {"name": "recombinant ruLAP2 (aminopeptidase II of Trichophyton rubrum) produced in P. pastoris (protein)", "chain": "RLVGQEPFGWPFKPMVTQDDLQNKIKLKDIMAGVEKLQSFSDAHPEKNRVFGGNGHKDTVEWIYNEIKATGYYDVKKQEQVHLWSHAEAALNANGKDLKASAMSYSPPASKIMAELVVAKNNGCNATDYPANTQGKIVLVERGVCSFGEKSAQAGDAKAAGAIVYNNVPGSLAGTLGGLDKRHVPTAGLSQEDGKNLATLVASGKIDVTMNVISLFENRTTWNVIAETKGGDHNNVIMLGAHSDSVDAGPGINDNGSGSIGIMTVAKALTNFKLNNAVRFAWWTAEEFGLLGSTFYVNSLDDRELHKVKLYLNFDMIGSPNFANQIYDGDGSAYNMTGPAGSAEIEYLFEKFFDDQGIPHQPTAFTGRSDYSAFIKRNVPAGGLFTGAEVVKTPEQVKLFGGEAGVAYDKNYHRKGDTVANINKGAIFLNTRAIAYAIAEYARSLKGFPTRPKTGKRDVNPQYSKMPGGGCGHHTVFM"}}, "key": {"gliadin 33mer … (wheat)": {"molecular_target": "gliadin 33mer … (wheat)", "assay": "cell-based or functional assay"}, "[1]": {"molecular_target": "T1, gliadin 33mer LQLQPFPQPQLPYPQPQLPYPQPQLPYPQPQPF", "T1 chain": "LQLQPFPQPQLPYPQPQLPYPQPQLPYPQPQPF"}, "[2]": {"molecular_target": "T2, gliadin 14mer PQPQLPYPQPQLPY", "T2 chain": "PQPQLPYPQPQLPY"}}, "data": [{"molecule": "Pronase", "values": [{"measurement": "digestion of the peptide over 20 h, E/S=1/25", "setting": "gliadin 33mer … (wheat)", "value": "< 40", "unit": "%"}]}, {"molecule": "B1", "values": [{"measurement": "digestion of the peptide, RP-HPLC and ESI-MS", "setting": "[1]", "value": "incubation with microsomal porcine kidney aminopeptidase results only in a partial deletion of N-terminal Leu and C-terminal Phe (due to a carboxypeptidasic contaminant)"}]}, {"molecule": "B2", "values": [{"measurement": "digestion of the peptide, RP-HPLC", "setting": "[1]", "value": "Cytosolic porcine kidney aminopeptidase is totally inactive towards the 33mer"}]}, {"molecule": "B3", "values": [{"measurement": "mass loss after overnight digestion (ESI-MS)", "setting": "Ala-proNPY", "value": "the N-terminal alanine was almost totally removed (molecular mass loss of 71 amu) from proNPY"}, {"measurement": "digestion of the peptide, 37 C, 4 h, RP-HPLC and ESI-MS", "setting": "[2]", "value": "the 14mer is not digested with ruLAP2 within 4 h. There is no change in the HPLC profile when compared with the control. In fact, digestion results only in the cleavage of the N-terminal Proline."}, {"measurement": "mass loss after overnight digestion (ESI-MS), E/S 1:20 and 1:100", "setting": "Gly-Ser-proNPY", "value": "incubation with ruLAP2 results in the cleavage of the two N-terminal residues Gly-Ser with a theoretical loss of 144.1 amu (found 144.2)"}]}]}
